Experiments:
Calu-6 lung cancer cells = assay: Mitochondrial targeting and cytochrome c release in Calu-6 cells; type: cell-based
Source text: TR3/ΔDBD targets mitochondria in NCI-H460 cells, which express high levels of Bcl-2 (Lu et al. 2001 Cancer Chemother Pharmacol 47:170-178). To determine whether Bcl-2 is involved in mitochondrial targeting of TR3, GFP-TR3/ΔDBD was transfected into Calu-6 lung cancer cells, which express low levels of Bcl-2. GFP-TR3/ΔDBD and Bcl-2 were transfected into Calu-6 lung cancer cells alone or together.

[1] = test system: NCI-H460 lung cancer cells; assay: GFP-TR3/ΔDBD mitochondrial targeting in NCI-H460 lung cancer cells; type: cell-based; settings: transient transfection
Method: (§1) Subcellular localization assays—Cells were seeded onto cover-slips in 6-well plates overnight, then transiently transfected with GFP-fusion expression plasmids. After 16 hours, cells were washed with PBS and fixed in 4% paraformaldehyde. For mitochondrial staining, cells were then incubated with anti-Hsp60 goat IgG (Santa Cruz, USA), followed by anti-goat IgG conjugated with Cy3 (Sigma). For cyt c staining, cells were incubated with monoclonal anti-cyt c IgG (PharMingen), followed by anti-mouse IgG conjugated with Cy5 (Amersham). Fluorescent images were collected and analyzed using a MRC-1024 MP laser-scanning confocal microscope (Bio-Rad). Subcellular fractionation assays were performed as described (Li, et al. 2000 Science 289:1159-1164). Briefly, cells (1×10^7 cells) suspended in 0.5 ml hypotonic buffer (5 mM Tris-HCl, pH 7.4, 5 mM KCl, 1.5 mM MgCl2, 0.1 mM EGTA, pH 8.0, and 1 mM DTT) were homogenized and cell extracts were centrifuged at 500×g for 5 min. The resulting supernatant was centrifuged at 10,000×g for 30 min at 4° C. to obtain the HM fraction. […]
Given the results of these studies, it was desirable to determine whether TR3 exerts its apoptotic effect in lung cancer cells as in prostate cancer cells by targeting to mitochondria. […] The cells were stained for mitochondria (Hsp60) and cytochrome c (Cyt c), and analyzed by confocal microscopy. […]

Bcl-2/ΔTM = molecular target: T1, Bcl-2/ΔTM (Homo sapiens, UniProt P10415); assay: Mammalian two-hybrid assay in CV-1 cells; type: cell-based; settings: Gal-TAD fusion co-expressed with Gal4-DBD-Bcl-2/ΔTM, 48 h
T1 construct: expressed in transfected cells; host or cells: CV-1
Method: TR3/Bcl-2 interaction assays—Reporter gene assays using NurRE-tk-CAT in CV-1 cells, and GST pull-down assay were described previously (Li, et al. 2000 Science 289, 1159-1164). For the mammalian two-hybrid assays, CV-1 cells were co-transfected with pcDNA-Gal4TAD-TR3 or pcDNA-Gal4TAD-TR3/ΔDBD and pcDNA-Gal4DBD-Bcl-2/ΔTM along with a luciferase reporter gene driven by four copies of the Gal4-binding site. The cells were harvested and reporter gene activity was measured. For Co-IP assays, HEK293T cells were transiently transfected with various expression plasmids using a modified calcium phosphate precipitation method (Wu et al, 1997) in the presence of caspase inhibitors (zVAD-fmk) to prevent degradation of TR3 protein due to apoptosis. Cells were suspended in lysis buffer (50 mM Tris-HCl, PH7.4; 150 mM NaCl; 20 mM EDTA; 1% NP-40; 1 mM PMSF; 50 μg/ml Leupeptin; […]; 0.1 mM Na3VO4; and 1 mM DTT). […] Immunoreactive products were detected by chemiluminescence with an enhanced chemiluminescence system (ECL) (Amersham).
E. Two-hybrid assay—a two-hybrid assay was performed to assess the interaction of TR3 and Bcl-2. […] Reporter gene activity was determined 48 h later and normalized relative to β-gal activity.

[2] = test system: peripheral blood lymphocytes (PBLs); assay: TR3 subcellular localization in peripheral blood lymphocytes; type: cell-based, human; settings: DsRed2-Mito
Source text: TR3 subcellular localization was studied by both confocal microscopy and subcellular fractionation approaches. For microscopy experiments, freshly isolated PBLs were transfected with GFP-TR3, then treated with phorbol ester TPA and the calcium ionophore ionomycin, which induce TR3-dependent apoptosis of T-lymphocytes.

ZR-75-1 cells = assay: GFP-TR3/ΔDBD localization and cytochrome c release in ZR-75-1 cells; type: cell-based; settings: ZR-75-1, absence of any treatment
Method: as §1, with “min.” for “min. The resulting supernatant was centrifuged at 10,000×g for 30 min at 4° C. to obtain the HM fraction.”
To study whether the TR3 nuclear-to-mitochondrial targeting pathway also occurs in breast cancer cells, a GFP-TR3 fusion construct was transfected into MDA-MB-231 cells. […] Next, GFP-TR3/ΔDBD was transiently transfected into ZR-75-1 or MDA-MB-231 cells, stained for mitochondria (Hsp60) and cytochrome c (Cyt c), and analyzed by confocal microscopy.

T1 sequence (P10415 1-204 limits assumed, stated change not applied): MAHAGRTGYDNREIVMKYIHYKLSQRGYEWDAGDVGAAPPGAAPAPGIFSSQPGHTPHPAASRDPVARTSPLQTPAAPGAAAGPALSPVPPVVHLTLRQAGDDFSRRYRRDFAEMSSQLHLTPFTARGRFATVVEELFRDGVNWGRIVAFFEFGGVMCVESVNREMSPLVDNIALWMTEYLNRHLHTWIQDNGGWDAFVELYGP

B1: TR3/ΔDBD: TR3 mutant with the DNA binding domain removed; used as GFP fusion (protein)
chain: MPCIQAQYGTPAPSPGPRDHLASDPLTPEFIKPTMDLASPEAAPAAPTALPSFSTFMDGYTGEFDTFLYQLPGTVQPCSSASSSASSTSSSSATSPASASFKFEDFQVYGCYPGPLSGPVDEALSSSGSDYYGSPCSAPSPSTPSFQPPQLSPWDGSFGHFSPSQTYLVLHRLQCARGFGDWIDSILAFSRSLHSLLVDVPAFACLSALVLITDRHGLQEPRRVEELQNRIASCLKEHVAAVAGEPQPASCLSRLLGKLPELRTLCTQGLQRIFYLKLEDLVPPPPIIDKIFMDTLPF
modifications: left off: large carriers; small tags and cut ends
notes: used as GFP fusion
subcellular distribution (Calu-6 lung cancer cells; Calu-6, Bcl-2 co-transfected): targeted mitochondria | cytochrome c release (Calu-6 lung cancer cells; Calu-6, Bcl-2 cotransfected): released from mitochondria | subcellular distribution (Calu-6 lung cancer cells; Calu-6, alone): diffusely distributed | GFP-TR3/ΔDBD subcellular localization [1]: targeted to mitochondria | Gal4 reporter gene activity (Bcl-2/ΔTM): strongly activated | mitochondrial colocalization [2]: colocalized extensively with DsRed2-Mito | GFP-TR3/ΔDBD subcellular localization (ZR-75-1 cells): targeted to mitochondria | cytochrome c release (ZR-75-1 cells): caused release of cytochrome c from the mitochondria

From patent US8273705B2, “Conversion of apoptotic proteins” (The Burnham Institute, priority 2002, dated 2012)
